Earlier results, collected in patent US10525162B2, “Sophorolipid mediated accelerated gelation of silk fibroin” (COUNCIL OF SCIENTIFIC & INDUSTRIAL RESEARCH, priority 2014, dated 2020).

Conditions: aqueous SF solution without additive, below the isoelectric pH

SF: Silk fibroin, fibrous protein derived from silkworm Bombyx mori
gelation time: 10 to 16 h
